Results as given in the supplement of paper PMC7877785.
± gives the uncertainty stated by the source.

Assay: self-splicing fitness, log relative to wild type (ln ratio); higher = more splicing; Tetrahymena group I intron in knt gene, E. coli kanamycin selection, DiMSum; sequences stand for … in CUCUCU…GGAGGGAAAAGUUAUCAGGCAUGCACCUGGUAGCUAGUCUUUAAACCAAUAGAUUGCAUCGGUUUAAAAGGCAAGACCGUCAAAUUGCGGGAAAGGGGUCAACAGCCGUUCAGUACCAAGUCUCAGGGGAAACUUUGAGAUGGCCUUGCAAAGGGUAUGGUAAUAAGCUGACGGACAUGGUCCUAACCACGCAGCCAAGUCCUAAGUCAACAGAUCUUCUGUUGAUAUGGAUGCAGUUCACAGACUAAAUGUCGGUCGGGGAAGAUGUAUUCUUCUCAUAAGAUAUAGUCGGACCUCUCCUUAAUGGGAGCUAGCGGAUGAAGUGAUGCAACACUGGAGCCGCUGGGAACUAAUUUGUAUGCGAAAGUAUAUUGAUUAGUUUUGGAGUACUCGUGGUCG
In short: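 DiMSum derived fitness as the error-weighted combination of fold changes across replicates, kanamycin versus no kanamycin, normalised to wild type. E. coli BL21(DE3) held the library, which randomised all eight P1ex-region intron nucleotides within the knt kanamycin-resistance gene on pET-22b(+). Six replicate transformations grew overnight at 37°C or 30°C on LB agar with or without 25 μg/mL kanamycin, also containing 100 μg/mL carbenicillin, 50 μM IPTG and 0.2% rhamnose, and pooled colonies were amplicon-sequenced on an Illumina HiSeq 2500.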

| Sequence | self-splicing fitness (ln) (30 °C) | self-splicing fitness (ln) (37 °C) |
| --- | --- | --- |
| UACGAGCAAUAUUACGUCUA | -0.512 ± 0.1 | -0.152 ± 0.11 |
| UACGAGCAAUAUUACGUUAU | -3.45 ± 0.12 | -2.24 ± 0.099 |
| UACGAGCAAUAUUACGUUCA | -1.3 ± 0.11 | -0.719 ± 0.13 |
| UACUAGCAAUAUUACGAAAU | – | -3.34 ± 0.4 |
| UACUAGCAAUAUUACGAACC | – | -2.16 ± 0.22 |
| UACUAGCAAUAUUACGAACG | -0.328 ± 0.15 | -0.12 ± 0.18 |
| UACUAGCAAUAUUACGAACU | -1.14 ± 0.21 | -1.51 ± 0.25 |
| UACUAGCAAUAUUACGAGAA | -1.6 ± 0.33 | -0.769 ± 0.22 |
| UACUAGCAAUAUUACGAGAU | -2.46 ± 0.23 | -1.54 ± 0.28 |
| UACUAGCAAUAUUACGAGUA | -2.36 ± 0.18 | -1.77 ± 0.19 |
| UACUAGCAAUAUUACGAUCC | -3.14 ± 0.36 | -2.84 ± 0.38 |
| UACUAGCAAUAUUACGAUUG | -1.88 ± 0.16 | -0.352 ± 0.21 |
| UACUAGCAAUAUUACGCGGC | -4.73 ± 0.46 | -2.95 ± 0.4 |
| UACUAGCAAUAUUACGGAUU | -2.82 ± 0.12 | -1.56 ± 0.13 |
| UACUAGCAAUAUUACGGGGC | -3.02 ± 0.3 | -2.5 ± 0.44 |
| UACUAGCAAUAUUACGGGGG | -2.19 ± 0.12 | -1.31 ± 0.14 |
| UACUAGCAAUAUUACGUCUG | -0.817 ± 0.07 | -0.845 ± 0.086 |
| UACUAGCAAUAUUACGUGGC | -2.44 ± 0.18 | -2.91 ± 0.28 |
| UACUAGCAAUAUUACGUGUC | -3.38 ± 0.17 | -2.79 ± 0.15 |
| UACUAGCAAUAUUACGUUAC | -3.86 ± 0.27 | -2.44 ± 0.3 |
| UACUAGCAAUAUUACGUUCC | -2.22 ± 0.32 | -2.33 ± 0.35 |
| UACUAGCAAUAUUACGUUGG | -2.61 ± 0.14 | -0.807 ± 0.15 |
| UAGAAGCAAUAUUACGAAAU | -3.48 ± 0.24 | -1.95 ± 0.21 |
| UAGAAGCAAUAUUACGACAG | -0.764 ± 0.12 | -0.152 ± 0.14 |
| UAGAAGCAAUAUUACGACGC | -1.84 ± 0.33 | -1.21 ± 0.24 |
| UAGAAGCAAUAUUACGAGCA | -1.27 ± 0.096 | 0.167 ± 0.1 |

| Sequence | self-splicing fitness (ln) (30 °C) | self-splicing fitness (ln) (37 °C) |
| --- | --- | --- |
| UAGAAGCAAUAUUACGAGCC | – | -2.23 ± 0.26 |
| UAGAAGCAAUAUUACGAGGG | -3.17 ± 0.18 | -2.62 ± 0.21 |
| UAGAAGCAAUAUUACGAUAG | -1.57 ± 0.15 | -0.522 ± 0.15 |
| UAGAAGCAAUAUUACGAUCU | -1.11 ± 0.12 | -0.261 ± 0.16 |
| UAGAAGCAAUAUUACGAUGC | -1.9 ± 0.24 | -0.852 ± 0.2 |
| UAGAAGCAAUAUUACGCAAU | -2.51 ± 0.16 | -1.04 ± 0.24 |
| UAGAAGCAAUAUUACGCACA | -0.416 ± 0.098 | -0.144 ± 0.16 |
| UAGAAGCAAUAUUACGCACG | -0.11 ± 0.23 | -0.0394 ± 0.23 |
| UAGAAGCAAUAUUACGCAGU | -4.08 ± 0.29 | -2.07 ± 0.25 |
| UAGAAGCAAUAUUACGCGUG | -1.17 ± 0.13 | -0.211 ± 0.13 |
| UAGAAGCAAUAUUACGCUAA | -1.42 ± 0.12 | -0.983 ± 0.1 |
| UAGAAGCAAUAUUACGCUUC | -2.27 ± 0.18 | -2.81 ± 0.22 |
| UAGAAGCAAUAUUACGGAUU | -1.57 ± 0.11 | -1.37 ± 0.15 |
| UAGAAGCAAUAUUACGGCAC | -2.42 ± 0.09 | -1.89 ± 0.095 |
| UAGAAGCAAUAUUACGGCGA | 0.119 ± 0.22 | -0.385 ± 0.24 |
| UAGAAGCAAUAUUACGGGGC | -3.58 ± 0.39 | -1.6 ± 0.21 |
| UAGAAGCAAUAUUACGGUAU | -3.08 ± 0.2 | -2.55 ± 0.17 |
| UAGAAGCAAUAUUACGGUUC | -3.98 ± 0.25 | -2.31 ± 0.19 |
| UAGAAGCAAUAUUACGUACA | -0.549 ± 0.14 | 0.208 ± 0.16 |
| UAGAAGCAAUAUUACGUCAA | -2.08 ± 0.16 | -0.86 ± 0.12 |
| UAGAAGCAAUAUUACGUCGC | -3.7 ± 0.38 | -2.21 ± 0.32 |
| UAGAAGCAAUAUUACGUCGU | -1.75 ± 0.097 | -0.904 ± 0.1 |
| UAGAAGCAAUAUUACGUCUU | -1.18 ± 0.072 | -0.782 ± 0.085 |
| UAGAAGCAAUAUUACGUUCU | -1.61 ± 0.11 | -1.08 ± 0.11 |
| UAGAAGCAAUAUUACGUUUA | -1.21 ± 0.11 | -0.575 ± 0.098 |
| UAGCAGCAAUAUUACGAAAG | -2.58 ± 0.21 | -1.73 ± 0.25 |

| Sequence | self-splicing fitness (ln) (30 °C) | self-splicing fitness (ln) (37 °C) |
| --- | --- | --- |
| UAGCAGCAAUAUUACGAAGA | -1.64 ± 0.14 | -1.29 ± 0.13 |
| UAGCAGCAAUAUUACGACCG | -0.887 ± 0.13 | -0.0437 ± 0.22 |
| UAGCAGCAAUAUUACGACUC | -0.27 ± 0.091 | 0.54 ± 0.12 |
| UAGCAGCAAUAUUACGCCAA | -1.78 ± 0.12 | -0.98 ± 0.1 |
| UAGCAGCAAUAUUACGCCAU | -4.36 ± 0.3 | -2.32 ± 0.14 |
| UAGCAGCAAUAUUACGCGGG | -2.24 ± 0.14 | -2.04 ± 0.2 |
| UAGCAGCAAUAUUACGCUCG | -1 ± 0.12 | 0.142 ± 0.14 |
| UAGCAGCAAUAUUACGCUUA | -0.452 ± 0.084 | -0.689 ± 0.087 |
| UAGCAGCAAUAUUACGGACC | -1.74 ± 0.18 | -1.67 ± 0.29 |
| UAGCAGCAAUAUUACGGAUA | -0.783 ± 0.081 | -0.203 ± 0.1 |
| UAGCAGCAAUAUUACGGAUU | -3.22 ± 0.14 | -1.08 ± 0.13 |
| UAGCAGCAAUAUUACGGCAU | -1.29 ± 0.081 | -0.191 ± 0.089 |
| UAGCAGCAAUAUUACGGGAA | -2.47 ± 0.19 | -1.41 ± 0.18 |
| UAGCAGCAAUAUUACGGGCC | -1.45 ± 0.21 | -2.55 ± 0.36 |
| UAGCAGCAAUAUUACGGGGU | -3.72 ± 0.14 | -2.99 ± 0.16 |
| UAGCAGCAAUAUUACGGGUA | -0.507 ± 0.052 | 0.13 ± 0.057 |
| UAGCAGCAAUAUUACGGUGG | -1.85 ± 0.089 | -1.12 ± 0.1 |
| UAGCAGCAAUAUUACGUAAA | -1.73 ± 0.099 | -1.32 ± 0.13 |
| UAGCAGCAAUAUUACGUAAU | -3.27 ± 0.12 | -0.695 ± 0.089 |
| UAGCAGCAAUAUUACGUGAC | -3.19 ± 0.18 | -3.45 ± 0.28 |
| UAGCAGCAAUAUUACGUGAG | -0.937 ± 0.035 | -0.228 ± 0.056 |
| UAGCAGCAAUAUUACGUGGG | -3.61 ± 0.11 | -2.42 ± 0.13 |
| UAGCAGCAAUAUUACGUUAA | -2.13 ± 0.099 | -1.15 ± 0.084 |
| UAGCAGCAAUAUUACGUUAG | -3.08 ± 0.12 | -1.34 ± 0.13 |
| UAGCAGCAAUAUUACGUUUG | -1.29 ± 0.077 | -1.12 ± 0.11 |
